Data as given in patent US6017886A, “Use of NDF peptide as growth factor for sensory epithelium” (Amgen Inc., priority 1999, dated 2000).

Tested on: utricular epithelium from seven day-old rats
Experiment: BrdU incorporation (mitogenic activity) in primary culture of infant rat utricular sensory epithelium
Assay type: cell-based
Conditions: 50 ng/ml, seventy-two hours culture, infant (seven day-old) rat epithelium; control 50±7
Protocol: Sensory edithelial cells obtained from utricles in the inner ear of both seven day-old (infant) rats and six week-old (adult) rats were isolated with the use of thermolysin treatment; see Corwin et al., Abstracts of the Association for Research in Otolaryngology, Volume 18, page 87 (1995). All edges were trimmed away and the central portion of the epithelium was cut into quarters. Epithelial cells from the infant rats were cultured in DMEM/F12 with 10% FBS (Gibco BRL, Grand Island, N.Y.), and 3 micrograms per milliliter (μg/ml) of mitosis tracer BrdU (Aldrich Chemicals, Milwaukee, Wis.) for seventy-two hours, with or without 50 nanograms per milliliter (ng/ml) of the peptide of SEQ ID NO: 1 or 50 ng/ml of recombinant derived FGF-10, recombinant derived FGF-16, recombinant derived ciliary-derived neurotrophic factor (CNTF), recombinant derived neurotrophic growth facor (NGF), recombinant derived glial-derived neurotrophic factor (GDNF), recombinant derived keratinocyte growth factor (KGF), or a control (no growth factor present). The experiment was ended by fixing in 4% paraformaldehyde for one hour.
After several washes, the explants were immunostained for calretinin (a vestibular organ hair cell marker) using rabbit antiserum (SWant Swiss Antibodies, Belinzona, Switzerland), diluted 1:10,000. The secondary antibody was goat anti-rabbit immunoglobulin conjugated to biotin, diluted 1:1,000. Extensive washes were followed by incubating the explants with egg white avidin conjugated to Cy3, diluted 1:1,000. The explants were fixed again with paraformaldehyde as described above, then processed for BrdU immunostaining (a measure of cell proliferation) using standard immunostaining protocols. The mouse monoclonal ant-BrdU antibody was obtained from Caltag Laboratories of San Franscisco, Calif. The secondary antibody, a goat anti-mouse conjugated to FITC, was obtained from Antibodies, Inc. of Davis, Calif.

| Molecule | number of BrdU-positive nuclei per piece of epithelium |
| --- | --- |
| GDNF: recombinant derived glial-derived neurotrophic factor (GDNF) (protein, UniProt P39905 78-211, looked up) Glial cell line-derived …: SPDKQMAVLPRRERNRQAAAANPENSRGKGRRGQRGKNRGCVLTAIHLNVTDLGLGYETKEELIFRYCSGSCDAAETTYDKILKNLSRNRRLVSDKVGQACCRPIAFDDDLSFLDDNLVYHILRKHSAKRCGCI | 37±13 |
| FGF-10: recombinant derived FGF-10 (protein, UniProt O15520 38-208, looked up) Fibroblast growth factor 10: QALGQDMVSPEATNSSSSSFSSPSSAGRHVRSYNHLQGDVRWRKLFSFTKYFLKIEKNGKVSGTKKENCPYSILEITSVEIGVVAVKAINSNYYLAMNKKGKLYGSKEFNNDCKLKERIEENGYNTYASFNWQHNGRQMYVALNGKGAPRRGQKTRRKNTSAHFLPMVVHS | 11±4 |
| CNTF: recombinant derived ciliary-derived neurotrophic factor (CNTF) (protein, UniProt P26441 1-200, looked up) Ciliary neurotrophic factor: MAFTEHSPLTPHRRDLCSRSIWLARKIRSDLTALTESYVKHQGLNKNINLDSADGMPVASTDQWSELTEAERLQENLQAYRTFHVLLARLLEDQQVHFTPTEGDFHQAIHTLLLQVAAFAYQIEELMILLEYKIPRNEADGMPINVGDGGLFEKKLWGLKVLQELSQWTVRSIHDLRFISSHQTGIPARGSHYIANNKKM | 23±3 |
| KGF: recombinant derived keratinocyte growth factor (KGF) (protein, UniProt P21781 32-194, looked up) Fibroblast growth factor 7: CNDMTPEQMATNVNCSSPERHTRSYDYMEGGDIRVRRLFCRTQWYLRIDKRGKVKGTQEMKNNYNIMEIRTVAVGIVAIKGVESEFYLAMNKEGKLYAKKECNEDCNFKELILENHYNTYASAKWTHNGGEMFVALNQKGIPVRGKKTKKEQKTAHFLPMAIT | 89±16 |
